Measured values as given in PMC5732184, “Arabidopsis Basic Helix-Loop-Helix 34 (bHLH34) Is Involved in Glucose Signaling through Binding to a GAGA Cis-Element”.

B1: DBE6 (dsDNA)
DNA 1: GAGGGAGATTCA
DNA 2: TGAATCTCCCTC
B2: DBE1 m1 (dsDNA)
DNA 1: AGAATAGACGGC
DNA 2: GCCGTCTATTCT
B3: DBE1 m2 (dsDNA)
DNA 1: AGAAGTGACGGC
DNA 2: GCCGTCACTTCT
B4: DBE1 m3 (dsDNA)
DNA 1: AGAAGATACGGC
DNA 2: GCCGTATCTTCT
B5: DBE1 m4 (dsDNA)
DNA 1: AGAAGAGTCGGC
DNA 2: GCCGACTCTTCT
B6: E-box (dsDNA)
DNA 1: CCGGCCACTTGTGCCA
DNA 2: TGGCACAAGTGGCCGG
B7: DBE1 (dsDNA)
DNA 1: AGAAGAGACGGC
DNA 2: GCCGTCTCTTCT
B8: DBE2 (dsDNA)
DNA 1: CCAGGAGAGGTT
DNA 2: AACCTCTCCTGG
B9: DBE3 (dsDNA)
DNA 1: AAATGAGAGGAT
DNA 2: ATCCTCTCATTT
B10: DBE4 (dsDNA)
DNA 1: CTTAGAGAGGAG
DNA 2: CTCCTCTCTAAG
B11: DBE5 (dsDNA)
DNA 1: AAATGAGATCAT
DNA 2: ATGATCTCATTT
B12: DBE1 unlabeled competitor (dsDNA)
DNA 1: AGAAGAGACGGC
DNA 2: GCCGTCTCTTCT

The molecules below were run against T1, His-bHLH34 (Arabidopsis thaliana) (UniProt Q9LTC7) (assay: EMSA). Details: 10 mM Tris-HCl pH 7.5, 50 mM KCl, 1 mM EDTA, 1 mM DTT, 2.5% glycerol, 1 ug poly(dI-dC), 100 ng protein, 0.3 pmol DNA in 20 uL; 25 C 20 min; 5% native PAGE in ….
T1 sequence: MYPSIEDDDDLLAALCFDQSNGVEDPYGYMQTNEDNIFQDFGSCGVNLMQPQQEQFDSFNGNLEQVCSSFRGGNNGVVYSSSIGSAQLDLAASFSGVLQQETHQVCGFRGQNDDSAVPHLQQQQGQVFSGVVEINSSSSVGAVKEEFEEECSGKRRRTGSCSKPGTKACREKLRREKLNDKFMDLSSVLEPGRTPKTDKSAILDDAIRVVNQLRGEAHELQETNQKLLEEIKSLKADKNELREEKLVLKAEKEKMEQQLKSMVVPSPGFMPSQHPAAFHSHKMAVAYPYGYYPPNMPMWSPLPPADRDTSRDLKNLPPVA

Question: For “AACCACGGACTCAGATCCATTCCTCGAGACGTTTGAATCTCCCTCTTCAATATTCAATCCCGTACAAGGTGTTACGGAGTAGGAGTAGAAGATTAGGACTCGTCGTCAGTTCTGTTTCAGCTCCCAACGTTGAGCTCCGT (double strand) [P4 fragment (-594 to -456)]”, which binding is on record?
Answer: The binding was “binds”.

Question: How did the binding turn out when “GTGATGGAGGTGTGACGCTAAGCCCTGAGCAGCACAAGGAGGTGGCACAAGTGGCCGGAGAGCTTCAAAAGTACTGTGTCAAGGAGCCTGTCAAAAATCCTCTCATTTTTGGAGGTAAAAGTGTAAGAACCTAGCTGCCA (double strand) [P2 fragment (-874 to -735)]” was run?
Answer: Its binding is “binds”.

Question: How did the binding turn out when “GAAGAAGAGACGGCCTATCACGCTTCTGTAGCCTCCACCAGGAGAGGTTGGTCTAGAACAGTACACCACTTCCCAATCTGCACCAAATCCCACAAGTTCACATATTGATCCAAGGAAGAAGCAA (double strand) [P1 fragment (-999 to -875)]” was run?
Answer: The binding was “binds”.

Question: For “TATTCGCAACCTATTCACAATTCACAAACTTTCAAATAAATGCGCCAAACTAAGTCAGATCCTCAAGATCGGTGTATACAAATCAGAAATCGTTACACAACCTTAGAGAGGAGGGTAGAAATGAGATCATCAGGTCCAGT (double strand) [P3 fragment (-734 to -595)]”, which binding is on record?
Answer: Its binding is “binds”.

The molecules below were run against T2, His-bHLH34 (Arabidopsis thaliana, UniProt Q9LTC7 1-320) (assay: EMSA; 10 mM Tris-HCl pH 7.5, 50 mM KCl, 1 mM EDTA, 1 mM DTT, 2.5% glycerol, 1 ug poly(dI-dC), 100 ng protein, 0.3 pmol DNA in 20 uL; 25 C 20 min; 5% native PAGE in TBE at 4 C). Details: protein: recombinant; tags: His tag (pET300/NT-DEST); chain copies: 2; label: 32P; blunt.
T2 sequence: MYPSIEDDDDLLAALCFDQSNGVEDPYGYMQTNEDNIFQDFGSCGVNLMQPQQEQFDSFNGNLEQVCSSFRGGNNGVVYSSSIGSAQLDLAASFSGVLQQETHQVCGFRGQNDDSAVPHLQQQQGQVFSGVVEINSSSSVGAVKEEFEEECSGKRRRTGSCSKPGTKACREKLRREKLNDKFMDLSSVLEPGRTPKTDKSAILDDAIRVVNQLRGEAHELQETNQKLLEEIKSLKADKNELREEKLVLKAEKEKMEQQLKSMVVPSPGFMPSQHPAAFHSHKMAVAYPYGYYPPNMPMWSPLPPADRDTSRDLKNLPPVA

Question: Does B1 bind?
Answer: Result: binds

Question: Does B2 bind?
Answer: Result: no binding

Question: Does B3 bind?
Answer: Result: no binding

Question: Does B4 bind?
Answer: Result: no binding

Question: Does B5 bind?
Answer: Result: no binding

Question: Does B6 bind?
Answer: Result: binds

Question: Does B7 bind?
Answer: Result: binds

Question: Does B8 bind?
Answer: Result: binds

Question: Does B9 bind?
Answer: Result: binds

Question: Does B10 bind?
Answer: Result: binds

Question: Does B11 bind?
Answer: Result: binds

The molecules below were run against T2, His-bHLH34 (assay: competition; 10-100x excess against 32P-DBE1; 10 mM Tris-HCl pH 7.5, 50 mM KCl, 1 mM EDTA, 1 mM DTT, 2.5% glycerol, 1 ug poly(dI-dC), 100 ng protein, 0.3 pmol DNA in 20 uL; 25 C 20 min; 5% native PAGE in TBE at 4 C). Details: protein: recombinant; tags: His tag (pET300/NT-DEST); chain copies: 2; blunt.

Question: Does B12 bind?
Answer: Result: binds
